The text below walks through data of the DeepSol protein solubility set.

The nature of the data set: soluble on expression in E. coli; label from the status in PepcDB or PDB records.
As for “MMKSIILIVLDGLGDRPGSDLQNRTPLQAAFRPNLNWLASHGINGIMHPISPGIRCGSDTSHMSLLGYDPKVYYPGRGPFEALGLGMDIRPGDLAFRANFATNRDGVIVDRRAGRENKGNEELADAISLDMGEYSFRVKSGVEHRAALVVSGPDLSDMIGDSDPHREGLPPEKIRPTDPSGDRTAEVMNAYLEEARRILSDHRVNKERVKNGRLPGNELLVRSAGKVPAIPSFTEKNRMKGACVVGSPWLKGLCRLLRMDVFDVPGATGTVGSNYRGKIEKAVDLTSSHDFVLVNIKATDVAGHDGNYPLKRDVIEDIDRAMEPLKSIGDHAVICVTGDHSTPCSFKDHSGDPVPIVFYTDGVMNDGVHLFDELSSASGSLRITSYNVMDILMQLAGRSDKFGSLEHHHHHH”, the “soluble on expression in E. coli” value is “soluble”. For “MEVQTETYRAAMNGTLERHFSDMIAVIPTRITIEQLKQRLENIATKVDELKIVYSDETSLIVELHMDETIIPYELHIDEANDPEEYKMYNRQDSTIVDRNFEDAAFGTEIFTRTLFVGDVLDCFFQQIQFLWNLAPDLLFVIDSSAAMKVISRNYIEYHVENELLPDIPDLYVIHSVYEDDKEGEPTQYWFHTHGLLRAGVTEIELIIPNRISSYYGIGDLFQTFANNAVENGQVPMNEPIVIAHSQQGSIHTVAVPWEKGLSYIGHKTSMDQLSSIEDEEVKLQPIDAQNTFLGGMDARDEYHQSPSVLLFKFNTSEEYIESFFKEHEEATGLMFYKTNSETDRMAYNAKNTFGYFSNIFQIEKSNEEFRFLAKFGVSYEEGKSEHMWFEMQHITEDLIQGILINEPYFIEDMSEGNSYHLDFDNLTDWVIYAGDAVIKPNNLYMFIGE”, the “soluble on expression in E. coli” value is recorded as “not soluble”. Consider “MAEELVLERCDLELETNGRDHHTADLCREKLVVRRGQPFWLTLHFEGRNYQASVDSLTFSVVTGPAPSQEAGTKARFPLRDAVEEGDWTATVVDQQDCTLSLQLTTPANAPIGLYRLSLEASTGYQGSSFVLGHFILLFNAWCPADAVYLDSEEERQEYVLTQQGFIYQGSAKFIKNIPWNFGQFQDGILDICLILLDVNPKFLKNAGRDCSRRSSPVYVGRVGSGMVNCNDDQGVLLGRWDNNYGDGVSPMSWIGSVDILRRWKNHGCQRVKYGQCWVFAAVACTVLRCLGIPTRVVTNYNSAHDQNSNLLIEYFRNEFGEIQGDKSEMIWNFHCWVESWMTRPDLQPGYEGWQALDPTPQEKSEGTYCCGPVPVRAIKEGDLSTKYDAPFVFAEVNADVVDWIQQDDGSVHKSINRSLIVGLKISTKSVGRDEREDITHTYKYPEGSSEEREAFTRANHLNKLAEKEETGMAMRIRVGQSMNMGSDFDVFAHITNNTAEEYVCRLLLCARTVSYNGILGPECGTKYLLNLTLEPFSEKSVPLCILYEKYRDCLTESNLIKVRALLVEPVINSYLLAERDLYLENPEIKIRILGEPKQKRKLVAEVSLQNPLPVALEGCTFTVEGAGLTEEQKTVEIPDPVEAGEEVKVRMDLVPLHMGLHKLVVNFESDKLKAVKGFRNVIIGPA”, for which the “soluble on expression in E. coli” value is “soluble”. Take “MGSDKIHHHHHHMSFKKSELLNVLDMAFKKEFGKGLSLISPQWGLIAMKISSSTKTNTYGWLGFFPKMREWVGERQIKKMQAQAMSIENKTFESTVSISRTDIEDDQAGLFAPVVQQAGQSAAELPDDLVFSLLAKGKSTLCYDGQNFFDTDHPVYENVDGTGSHKEQSNLTTGSASEHPTFYILDDTNAIKPFIWQERSAPEIETKFDPSRSDKVFMEDVYLWGVRARGNAGFGFWQLIHCVEETELTADAVMKVLAQMRMLKGDGGKLLNIRPSTILVPPALEFKARQLFEAEIINGSTNPLKGVLKVAVSAQIATA”: the “soluble on expression in E. coli” value was “not soluble”. For “SKLNQNTMLVGKKVVLVPYTSEHVPRYHEWMKSEELRHLTASEQLTLQQEYEMQCSWCEDEDKCTFIVLDAEKWQAQPRPPEESCMVGDVNLFLTDLEDPTLGEIEVMIAEPSYRRQGLGTEASLLIMSYGVTKLGLTKFEAKIGQENEPSIRMFQKLHFKQVAMSNVFQEVTLRLAVSEPERKWILEQTSHMEERPYRTRKAEPVTATLSEQKSWNCPLPRPDGCMGDTSAVSSVCARLS” the value was “soluble”. For “MGSDKIHHHHHHMTNPISLKDPLKLPCGAVIKNRLIKSAMSDSLADGEGNATNLQARLYERWAKSGLGLSVIGEVQVDPRFPEKPGNLVLADGMDLAALRELTSRAAINGAHIWPQLSHAGGLSHLPISQPKGPSALNISQFQCAGMSIDEIYQLPDMYAKSAMLAKDVGFTGVQIHAGHGFLLSQFLSPLFNHRQDQYGGSIEARCRIIVEIIAKVRSAVGDSFPIGIKINSTDQLEGGLTQEDALAAIRILDQTSLDLIEISGGSYFPGAKSSSDSSTKGPYFAEFAATAKRLSNVPIAVTGGFKTYAQALKVIESGAVDFVGLARALVITPELAKDWLIGTATAPSFPRFKAPPQGGITAWFTMLLTAIANDSEESFELELLPALHLYEELDDARCDKWMQKFEIK” the value was “not soluble”; for “MAHRPRWTLSQVTELFEKPLLDLLFEAQQVHRQHFDPRQVQVSTLLSIKTGACPEDCKYCPQSSRYKTGLEAERLMEVEQVLESARKAKAAGSTRFCMGAAWKNPHERDMPYLEQMVQGVKAMGLEACMTLGTLSESQAQRLANAGLDYYNHNLDTSPEFYGNIITTRTYQERLDTLEKVRDAGIKVCSGGIVGLGETVKDRAGLLLQLANLPTPPESVPINMLVKVKGTPLADNDDVDAFDFIRTIAVARIMMPTSYVRLSAGREQMNEQTQAMCFMAGANSIFYGCKLLTTPNPEEDKDLQLFRKLGLNPQQTAVLAGDNEQQQRLEQALMTPDTDEYYNAAALLEHHHHHH”, “not soluble”; for “MSLAQIVNTERHSRLLPAPSSFEEGVVKFGDKEINIGGPLPTLAKDEKLVRVTHSLCPACYRLLPATIFEKEGKLFIRKICPEHGEFEDLYYADSSLYYKFDYWEYEGKGPKVPYVDLKSPCPYNCGLCPMHHQHSALVNLVITNRCDLSCWYCFFYAEKAGYVYEPTLEQIKFMVDQLKKQDITLVIQVTGGEPTLREDIIEIIKMLRENGVKHIQLNSWGGTFAKLYLEDPDKAIKYARALREAGVNTVYMSFDGTTRKTNPKNHWEIPYTLEVFRRAGMTSVVLVPTVIKTVNDNDLGNIVKFAAYNMDVVRSVNFQPVSLTGMMKRNMRAKFRITIPEVIKNIEEQTDGEITKDSWYPIGTSVVFSRLVEALTGKEQFEMANHPSCGAGTYVYVEWRNHEPHFIPISKFIDLEGLLEYLKEKEEELREGANKVWVASKVLYSIRKFIDKEQGPKDFDVYKMLYNIIIHHNYEALGEWHYRTLFLGSMHFMDLYNYDVQRVMRCDIHYVVPDGRVIPFCTYNVLNDLYRDKVLREYQIPLDKWTKEHGENSLGDAIKYKRIASTLENSEIYKNTYKSFQQMEGHHHHHH”, “not soluble”. As to “RQRTASLIDTNHWLSRIIDLVPHPIFLKDHNGKYLLANIAQGELFGKKPEELLGKTDIDFVYNSDEYVVIKQSDDKVVSTRKTVVLPEQIVTLGDIKYYLYTSKVPLISPVDGELRILGVSINLT”, the “soluble on expression in E. coli” value is on record as “not soluble”. As to “GPGSMSSFAPNVKICEDISHISSAARDIILAAIDARVDKSAPVVLALSGGSTPKRLYEELHEKDLTLLQQHAVQFILGDERLVATDDEQSNFSMATKALLRDVPISDVIAIEPSAALATSKDEKGGVDGAWAVAQDYEKKLRNRLPCTQVNGTDMSVPIVDIVLLGFGADGHTASIFPDSVAATDESHVVSVSFPSPTMNPKVWRVTLSKTVIQHAKHVVVLACGKDKNWVVHGVLAEAPTGPLPVSRFLRECRGSVTMLLDAGSGEGLSA”, the “soluble on expression in E. coli” value is “soluble”. As for “MPQSKFRLCSTKGTSMFSHIMIGSNDIEKSKVFYDAILSVLGYPAGVIDAKGRCLYINQDGVLGITKPVNGEPATHGNGMTIGFKVSSPELVEAWHAAGLANGGVACEDPPGIRTSGQRKMYLAYLRDPAGNKLCATHHMSTGN”, the “soluble on expression in E. coli” value was “not soluble”. Next, “GHMHTPFIVALDFPSKQEVERFLRPFAGTPLFVKVGMELYYQEGPAIVAFLKEQGHAVFLDLKLHDIPNTVKQAMKGLARVGADLVNVHAAGGRRMMEAAIEGLDAGTPSGRMRPRCIAVTQLTSTDERMLHEELWISRPLVETVAHYAALAKESGLDGVVCSANEAAFIKERCGASFLAVTPGIRFADDAAHDQVRVVTPRKARALGSDYIVIGRSLTRAADPLRTYARLQHEWNGGERESTTPT”: “soluble”; “MLVDKTEFEAWMERIMGELYRISRKLDKAETREKHLNYLNGERLYDNQEVCLLLRISKRTLQRYRNNGVLKFYSIYHKTYYKESDLHEFIRNNFDENEIKRQAREDKLSESYPLPKE”: “not soluble”; “MGSDKIHHHHHHMAKQKDGFLGEQALVLPPAIVQRMKTDPATSILYITDIGYYPKAYNHFRERETPIDQYVFIYCTEGRGWFSLDGQKHPVVPNQYFILPAGLPHAYGADEKEPWTIYWIHFGGTLAPLYCTHRTCRLTDIKPGMHSRISYRTELFEEIFRVLKMGYSLENLSYASSVFHHYLGSLRYLREYREAFSEHRPAGEEDPVNAAIHYMKENLGKKLTLAELADYTGYSSSYFSNLFLKRTGYAPLSYFNQIKIQKACQFLDFTDMKVNQVCYRVGIEDAYYFSRLFSQIMGMSPREYKKVKKG”: “not soluble”. With “MSSKEQKTPEGQAPEEIIMDQHEEIEAVEPEASAEQVDPRDEKVANLEAQLAEAQTRERDGILRVKAEMENLRRRTELDIEKAHKFALEKFINELLPVIDSLDRALEVADKANPDMSAMVEDIELTLKSMLDVVRKFGVEVIAETNVPLDPNVHQAIAMVESDDVAPGNVLGIMQKGYTLNGRTIRAAMVTVAKAKA”, the “soluble on expression in E. coli” value is recorded as “soluble”. For “MEGDTVHWQTHTVFNQPIPLNNSNLYLSDGALCEAVTREGAGWDSDFLASIGQQLGTAESLELGRLANVNPPELLRYDAQGRRLDDVRFHPAWHLLMQALCTNRVHNLAWEEDARSGAFVARAARFMLHAQVEAGSLCPITMTFAATPLLLQMLPAPFQDWTTPLLSDRYDSHLLPGGQKRGLLIGMGMTEKQGGSDVMSNTTRAERLEDGSYRLVGHKWFFSVPQSDAHLVLAQTAGGLSCFFVPRFLPDGQRNAIRLERLKDKLGNRSNASCEVEFQDAIGWLLGQEGEGIRLILKMGGMTRFDCALGSHAMMRRAFSLAIYHAHQRHVFGNPLIQQPLMRHVLSRMALQLEGQTALLFRLARAWDRRADAKEALWARLFTPAAKFVICKRGMPFVAEAMEVLGGIGYCEESELPRLYREMPVNSIWEGSGNIMCLDVLRVLNKQAGVYDLLSEAFVEVKGQDRYFDCAVRRLQQQLRKPAEELGREITHQLFLLGCGAQMLKYASPPMAQAWCQVMLDTRGGVRLSEQIQNDLLLRATGGVCV” the value was “not soluble”.

With “MSLDAITVDLNYDKNNVAVITPVWSQEWSVANVLGGWVCRSNRNENEGACEETHLVWWYAFGAYSKIRLRFREQISHAEITLILLGSVRDACYTGVINMNAAACQWGRSLKLRIPSEELAKIPTSGTWKATLVLDYLQWGGDDPLGTSTTDITLNVTDHFAENAAIYFPQFGTATPRVDLNLHRMNASQMSGRANLDMCLYDGGVKARSLQMKIEGSNKSGTGFQVIKSDSADTIDYAVSMNYGGRSIPVTRGVEFSLDNVDKAATRPVVLPGQRQAVRCVPVPLTLTTQPFNIREKRSGEYQGTLTVTMLMGTQTPEGHHHHHH”, the “soluble on expression in E. coli” value is “not soluble”. In the case of “MSLKQIIDNVEVYILTGPKEKRPHWVSHFIVPTANELLVKIKTKQGLEGFGIATNYSDINPVIEVFKTDFLDNFIGMDATCPEVIYEKIFNLTSQKLSFEKKWGKEPLIRISAAIDIACWDLIGKASGFPLYKLFGGYRDKVPCYVTCAYYRDGKDNKELKDEIEMLVGQGHQGFKGKVGGLSLREDLERMNIIRDVIGDEKSLMIDVNRAWDLKTASEAVNLLKPINPFWLEEPVRWADDRRELKLLSQKTEIPISGGESELTIYGCRSMLEEQAIQILQFDCTMFGGFTAGKKLSALCEVNHVDIAPHHDCFIHAHIVAGSPSGLIVESFTDPERDPLQAELFTNPPKIENGWLYLNEEPGLGLNLSNDALAKFGNKILEGHHHHHH”, the “soluble on expression in E. coli” value was “soluble”.
